From patent publication CN114656564A (ANHUI ANKE BIOLOGICAL ENG GROUP CO LTD, dated 2022)

Legend:
rhOX40-Avi-His = biological target: T1, rhOX40-Avi-His (human, UniProt P43489 29-214); test: ELISA on coated rhOX40-Avi-His
T1 construct: range 29-214; Recombinant protein made from plasmid pCD-OX40-Avi-His; also called OX40抗原; 抗原蛋白OX40; not shown: Avi tag; His tag
T1 sequence (looked up): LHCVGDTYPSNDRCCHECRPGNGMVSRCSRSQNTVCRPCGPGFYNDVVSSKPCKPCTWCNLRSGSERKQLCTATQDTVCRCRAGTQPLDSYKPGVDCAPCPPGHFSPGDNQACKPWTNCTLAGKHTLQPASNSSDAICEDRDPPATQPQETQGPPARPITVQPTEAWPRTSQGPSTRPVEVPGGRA

[1] = biological target: T2, human OX40 expressed on Jurkat cells (Jurkat-OX40-NFκB-Luc) (human, UniProt P43489 29-277); test: flow cytometry on Jurkat cells expressing OX40, anti-human Fc-FITC
T2 construct: whole, on cells; also called Jurkat-OX40-NFκB-21C6; 表达OX40抗原的Jurkat细胞系
T2 sequence (looked up): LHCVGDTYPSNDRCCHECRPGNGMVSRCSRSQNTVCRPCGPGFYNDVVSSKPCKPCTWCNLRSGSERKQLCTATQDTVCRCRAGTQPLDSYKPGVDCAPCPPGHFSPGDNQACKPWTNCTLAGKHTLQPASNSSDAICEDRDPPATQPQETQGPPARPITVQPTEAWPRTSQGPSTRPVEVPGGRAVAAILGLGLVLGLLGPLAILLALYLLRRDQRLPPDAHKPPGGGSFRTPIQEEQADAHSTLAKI

rhOX40-Avi-His-bio = biological target: T3, rhOX40-Avi-His-bio (human, UniProt P43489 29-214, biotin covalently attached to the Avi tag by BirA); test: SPR (T200), biotinylated rhOX40-Avi-His-bio captured on SA chip, D7-Fc as analyte
T3 construct: range 29-214; Biotinylated form of rhOX40-Avi-His, captured on SA chip in SPR; also called 生物素标记的抗原; not shown: Avi tag (biotinylated); His tag
T3 sequence (looked up): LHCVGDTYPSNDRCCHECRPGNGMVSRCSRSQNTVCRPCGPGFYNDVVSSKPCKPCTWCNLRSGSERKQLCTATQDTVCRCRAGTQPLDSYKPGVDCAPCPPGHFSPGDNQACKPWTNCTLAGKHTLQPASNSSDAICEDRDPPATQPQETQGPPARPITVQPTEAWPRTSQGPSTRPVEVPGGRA

B1: C7-Fc (Fc fusion)
chain: DVQLVESGGGLVQPGGSLRLSCAASGSIPSDTAMYWFRQAPGKGREWVSVIWGSGVTYYADSVKGRFTISRDNAKNTVYLQMNSLRAEDTAVYYCARTGLGRAYWGQGTQVTVSA
notes: not shown: IgG1 Fc region, from human
binding result (rhOX40-Avi-His): binds

B2: D1-Fc (Fc fusion)
chain: DVQLVESGGGLVQPGGSLRLSCAASGRTASGYTIGWFRQAPGKGRELVSAINRAGSATHYADSVKGRFTISRDNAKNTVYLQMNSLRAEDTAVYYCARSGRWGRYWLAYWGQGTQVTVSA
notes: as for B1
binding result (rhOX40-Avi-His): binds
binding result [1]: binds

B3: D7-Fc (Fc fusion)
chain: DVQLVESGGGLVQPGGSLRLSCAASGFTASIYGMRWFRQAPGKGRELVAGIVDAGSATYYADSVKGRFTISRDNAKNTVYLQMNSLRAEDTAVYYCARGNHEGEVGLDYWGQGTQVTVSA
notes: as for B1
Kd (rhOX40-Avi-His-bio): ~16.8 nM

B4: D12-Fc (Fc fusion)
chain: DVQLVESGGGLVQPGGSLRLSCAASGRQFGSYAMSWFRQAPGKGREWVSTIDSAGGSTNYADSVKGRFTISRDNAKNTVYLQMNSLRAEDTAVYYCARLIDWYCIDYFDYWGQGTQVTVSA
notes: as for B1
binding result (rhOX40-Avi-His): binds

B5: D2-Fc (Fc fusion)
chain: DVQLVESGGGLVQPGGSLRLSCAASGLTSSLYIWGWFRQAPGKGREWVSTIWDADVTDYADSVKGRFTISRDNAKNTVYLQMNSLRAEDTAVYYCARRDFDSLADGLDYWGQGTQVTVSA
notes: as for B1
binding result (rhOX40-Avi-His): binds
binding result [1]: binds

B6: A1-Fc (Fc fusion)
chain: DVQLVESGGGLVQPGGSLRLSCAASGFSYNRTDIRWFRQAPGKGRELVAGIANWGGTTYYADSVKGRFTISRDNAKNTVYLQMNSLRAEDTAVYYCARRRYECVDWIVDPWWDYWGQGTQVTVSA
notes: as for B1
binding result (rhOX40-Avi-His): binds
binding result [1]: binds
